# Data: the supplement of paper PMC10126150
# ± gives the standard deviation of the averaged measurements.
# Tested on: ATP
# Experiment: switch fluorescence ratio, 500 uM ATP over buffer (Cy3 cluster intensity, sum of 5 cycles each) (fold (ratio)); higher = stronger signal-on switching upon ATP binding; sequences stand for … in TCGTCGGCAGCGTCAGATGTGTATAAGAGACAGTTTTTTTTTTTTTTTTTTTTTTTTT…TC
# Conditions: aptamer strand: ATP DNA aptamer (quencher-CACCTGGGGGAGTATTGCGGAGGAAGG + anchor), 100 nM annealed; ATP concentration: 500 uM
# In short: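 Clusters carrying Cy3-labelled switching strands on a modified Illumina MiSeq flow-cell were annealed to 100 nM quencher-labelled ATP aptamer and imaged in selection buffer. They were imaged again after 15 min with 500 uM ATP at 22 °C, over five buffer/ATP cycles with NaOH stripping and re-annealing in between. For each cluster, the fluorescence ratio is the summed Cy3 intensity of the target cycles divided by that of the buffer cycles, averaged per switch-domain sequence. Clusters outside 100-1000 RFU were left out.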
# 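Note: ATP exposure 15 min at 22 °C before imaging.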
row,Sequence,switch fluorescence ratio
1,TTAGGTTTGG,1.05 ± 0.15
2,TTAGTAAAGA,1.02 ± 0.013
3,TTAGTAATGT,1.06 ± 0.072
4,TTAGTAGCTA,1.01 ± 0.013
5,TTAGTATATA,0.9946 ± 0.0059
6,TTAGTATCGA,0.966 ± 0.029
7,TTAGTATTTT,1.02 ± 0.087
8,TTAGTCAATT,0.97 ± 0.0044
9,TTAGTCAGGG,1.02 ± 0.024
10,TTAGTCCCCG,1.02 ± 0.038
11,TTAGTGAAGT,1 ± 0.011
12,TTAGTGATAC,2.49 ± 0.42
13,TTAGTGTACT,1.07 ± 0.038
14,TTAGTTAAAT,1.002 ± 0.0013
15,TTAGTTAGTT,0.98 ± 0.016
16,TTAGTTGA,0.999 ± 0.015
17,TTAGTTGAGA,1 ± 0.045
18,TTAGTTGGTA,0.987 ± 0.001
19,TTAGTTTATC,1.02 ± 0.027
20,TTAGTTTCTG,0.984 ± 0.046
21,TTAGTTTTCG,1.01 ± 0.02
22,TTATAAATAC,1.91 ± 0.7
23,TTATAAGACT,1.044 ± 0.0064
24,TTATAAGTGG,0.9907 ± 0.0072
25,TTATAATAGG,1.02 ± 0.032

row,Sequence,switch fluorescence ratio
1,TTATAATATG,0.9846 ± 0.0035
2,TTATAATGCC,0.997 ± 0.078
3,TTATACAGTG,1 ± 0.031
4,TTATACATGT,0.973 ± 0.055
5,TTATACCAAG,1.03 ± 0.023
6,TTATAGATGG,0.971 ± 0.077
7,TTATAGGGCC,1 ± 0.025
8,TTATAGTATG,0.99 ± 0.043
9,TTATAGTATT,0.957 ± 0.044
10,TTATAGTGTT,0.994 ± 0.012
11,TTATATATCA,1.01 ± 0.013
12,TTATATCCTG,0.974 ± 0.038
13,TTATATTGAT,1.017 ± 0.0029
14,TTATATTTGA,0.98 ± 0.015
15,TTATCACACT,1.02 ± 0.043
16,TTATCAGGTT,1 ± 0.031
17,TTATCAGTTT,1.03 ± 0.062
18,TTATCATACG,1.03 ± 0.024
19,TTATCATCTT,1.01 ± 0.032
20,TTATCCACGA,1.03 ± 0.033
21,TTATCCAGGA,1.006 ± 0.0093
22,TTATCCGAGA,1.04 ± 0.019
23,TTATCGGCGC,0.999 ± 0.014
24,TTATCGGGCT,1.02 ± 0.023
25,TTATCGGGGT,1.019 ± 0.008

row,Sequence,switch fluorescence ratio
1,TTATCGGTCT,0.9849 ± 0.0065
2,TTATCGGTTG,1.03 ± 0.043
3,TTATCGTGTC,1.02 ± 0.023
4,TTATCTAGGA,1 ± 0.028
5,TTATGAAGTT,0.996 ± 0.014
6,TTATGAATAT,0.9824 ± 0.005
7,TTATGAATGC,0.999 ± 0.055
8,TTATGACAGG,0.993 ± 0.022
9,TTATGAGATA,0.996 ± 0.035
10,TTATGAGGAC,1.03 ± 0.056
11,TTATGAGGCA,0.978 ± 0.026
12,TTATGATAGG,1.016 ± 0.0079
13,TTATGCCGGT,1.02 ± 0.068
14,TTATGCTGTT,1 ± 0.011
15,TTATGGAAGT,0.989 ± 0.025
16,TTATGGAATT,1.01 ± 0.044
17,TTATGGAGCA,1.09 ± 0.09
18,TTATGGAGTT,0.987 ± 0.01
19,TTATGGCAGA,1.009 ± 0.01
20,TTATGGCGGT,1.063 ± 0.0057
21,TTATGGCTTC,0.993 ± 0.029
22,TTATGGGAGT,0.966 ± 0.026
23,TTATGGGCGT,1.02 ± 0.02
24,TTATGGGGAT,0.988 ± 0.019
25,TTATGGGTAA,1.03 ± 0.034

row,Sequence,switch fluorescence ratio
1,TTATGGGTTG,1.002 ± 0.0039
2,TTATGGTACA,0.98 ± 0.019
3,TTATGTATAT,1.007 ± 0.0069
4,TTATGTCGAA,0.98 ± 0.017
5,TTATGTCGAG,0.978 ± 0.034
6,TTATGTCTTG,1.01 ± 0.019
7,TTATGTGGGC,0.97 ± 0.022
8,TTATGTTTG,1.012 ± 0.0031
9,TTATGTTTTA,0.9965 ± 0.0046
10,TTATTAATCG,0.963 ± 0.081
11,TTATTAATGT,1.02 ± 0.021
12,TTATTAGACG,0.976 ± 0.059
13,TTATTATAGA,0.998 ± 0.021
14,TTATTCCCAG,1.016 ± 0.0014
15,TTATTCCTTT,0.978 ± 0.042
16,TTATTCGGGG,0.968 ± 0.054
17,TTATTCGTTT,0.98 ± 0.03
18,TTATTGAATT,0.998 ± 0.045
19,TTATTGACGA,0.992 ± 0.021
20,TTATTGATTT,1.017 ± 0.0021
21,TTATTGCTTT,1 ± 0.036
22,TTATTGGGCA,1.04 ± 0.021
23,TTATTGGGTC,1.002 ± 0.01
24,TTATTGGTAA,1.0091 ± 0.00034
25,TTATTGTAAT,1.029 ± 0.0099
